Data published in the supplement of paper PMC7877785.
± gives the uncertainty stated by the source.

Test: self-splicing fitness, log relative to wild type (ln ratio); higher = more splicing; Tetrahymena group I intron in knt gene, E. coli kanamycin selection, DiMSum; sequences stand for … in CUCUCU…GGAGGGAAAAGUUAUCAGGCAUGCACCUGGUAGCUAGUCUUUAAACCAAUAGAUUGCAUCGGUUUAAAAGGCAAGACCGUCAAAUUGCGGGAAAGGGGUCAACAGCCGUUCAGUACCAAGUCUCAGGGGAAACUUUGAGAUGGCCUUGCAAAGGGUAUGGUAAUAAGCUGACGGACAUGGUCCUAACCACGCAGCCAAGUCCUAAGUCAACAGAUCUUCUGUUGAUAUGGAUGCAGUUCACAGACUAAAUGUCGGUCGGGGAAGAUGUAUUCUUCUCAUAAGAUAUAGUCGGACCUCUCCUUAAUGGGAGCUAGCGGAUGAAGUGAUGCAACACUGGAGCCGCUGGGAACUAAUUUGUAUGCGAAAGUAUAUUGAUUAGUUUUGGAGUACUCGUGGUCG
In short: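 A randomised library covering all eight P1ex-region intron nucleotides was built with the intron in the knt kanamycin-resistance gene on pET-22b(+) and held in E. coli BL21(DE3). Cells were grown overnight at 37°C or 30°C on LB agar, with or without 25 μg/mL kanamycin, plus 100 μg/mL carbenicillin, 50 μM IPTG and 0.2% rhamnose, and pooled colonies were amplicon-sequenced on an Illumina HiSeq 2500. DiMSum fitness is the error-weighted combination of wild-type-normalised replicate fold changes, kanamycin versus none.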

Row | Sequence | self-splicing fitness (ln) (30 °C) | self-splicing fitness (ln) (37 °C)
1 | CAGCAGCAAUAUUACGAAUC | -2.38 ± 0.27 | -2.33 ± 0.4
2 | CAGCAGCAAUAUUACGACUU | -0.431 ± 0.068 | 0.69 ± 0.083
3 | CAGCAGCAAUAUUACGAGCG | -0.131 ± 0.053 | -0.0622 ± 0.066
4 | CAGCAGCAAUAUUACGAGUA | -3.05 ± 0.19 | -1.77 ± 0.18
5 | CAGCAGCAAUAUUACGAGUU | -3.95 ± 0.2 | -2.15 ± 0.13
6 | CAGCAGCAAUAUUACGCGAG | -2.74 ± 0.15 | -1.7 ± 0.15
7 | CAGCAGCAAUAUUACGCGCG | -1.63 ± 0.099 | -1.3 ± 0.14
8 | CAGCAGCAAUAUUACGCGUA | -1.87 ± 0.083 | -1.05 ± 0.075
9 | CAGCAGCAAUAUUACGCUGU | -2.84 ± 0.22 | -2.36 ± 0.24
10 | CAGCAGCAAUAUUACGGAUC | -3.6 ± 0.36 | -1.37 ± 0.26
11 | CAGCAGCAAUAUUACGGGAC | -3.71 ± 0.22 | -2.46 ± 0.27
12 | CAGCAGCAAUAUUACGGUGG | -1.17 ± 0.067 | -0.196 ± 0.088
13 | CAGCAGCAAUAUUACGUCAG | -0.347 ± 0.05 | -0.265 ± 0.06
14 | CAGCAGCAAUAUUACGUGUC | -3.31 ± 0.15 | -2.79 ± 0.18
15 | CAGCAGCAAUAUUACGUGUG | -2.51 ± 0.077 | -1.32 ± 0.088
16 | CAGCAGCAAUAUUACGUUCU | -2.35 ± 0.072 | -1.4 ± 0.081
17 | CAGCAGCAAUAUUACGUUGC | -2.61 ± 0.27 | -2.11 ± 0.2
18 | CAGGAGCAAUAUUACGAUAA | -3.33 ± 0.2 | -1.88 ± 0.16
19 | CAGGAGCAAUAUUACGAUAC | -2.81 ± 0.4 | 
20 | CAGGAGCAAUAUUACGAUCA | -1.84 ± 0.16 | -2.74 ± 0.28
21 | CAGGAGCAAUAUUACGCAGG | -2.36 ± 0.078 | -1.37 ± 0.076
22 | CAGGAGCAAUAUUACGCCGC | -2.74 ± 0.25 | -1.58 ± 0.46
23 | CAGGAGCAAUAUUACGCGUA | -2.85 ± 0.16 | -2.03 ± 0.18
24 | CAGGAGCAAUAUUACGCGUG | -3.2 ± 0.16 | -2.42 ± 0.17
25 | CAGGAGCAAUAUUACGUAGA | -3.42 ± 0.28 | -1.56 ± 0.21

Row | Sequence | self-splicing fitness (ln) (30 °C) | self-splicing fitness (ln) (37 °C)
26 | CAGGAGCAAUAUUACGUAUU | -2.97 ± 0.21 | -2.2 ± 0.18
27 | CAGGAGCAAUAUUACGUCGC | -3.25 ± 0.34 | -1.6 ± 0.29
28 | CAGGAGCAAUAUUACGUGUA | -4.13 ± 0.27 | -2.83 ± 0.25
29 | CAGGAGCAAUAUUACGUUGC |  | -2.26 ± 0.28
30 | CAGUAGCAAUAUUACGAAAG | -0.623 ± 0.099 | -0.726 ± 0.14
31 | CAGUAGCAAUAUUACGAACG | -0.0483 ± 0.12 | -0.375 ± 0.14
32 | CAGUAGCAAUAUUACGAAUA | -4.27 ± 0.43 | -1.71 ± 0.2
33 | CAGUAGCAAUAUUACGAGAA |  | -3.36 ± 0.46
34 | CAGUAGCAAUAUUACGAGUU | -3.52 ± 0.18 | -2.06 ± 0.15
35 | CAGUAGCAAUAUUACGAUUA | -2.16 ± 0.13 | -1.73 ± 0.11
36 | CAGUAGCAAUAUUACGCAAC |  | -1.53 ± 0.36
37 | CAGUAGCAAUAUUACGCAAG | -1.07 ± 0.12 | -0.553 ± 0.17
38 | CAGUAGCAAUAUUACGCACA | -1.88 ± 0.14 | -0.579 ± 0.18
39 | CAGUAGCAAUAUUACGCAGA | -2.68 ± 0.37 | -2.43 ± 0.3
40 | CAGUAGCAAUAUUACGCCAG | -0.7 ± 0.1 | -0.109 ± 0.15
41 | CAGUAGCAAUAUUACGCCGU | -2.93 ± 0.36 | -0.37 ± 0.19
42 | CAGUAGCAAUAUUACGCGCA | -1.08 ± 0.074 | -0.617 ± 0.085
43 | CAGUAGCAAUAUUACGCGGA | -2.93 ± 0.24 | -1.64 ± 0.15
44 | CAGUAGCAAUAUUACGCGGG | -3.1 ± 0.16 | -1.91 ± 0.17
45 | CAGUAGCAAUAUUACGCUAA | -2.26 ± 0.5 | -2.38 ± 0.32
46 | CAGUAGCAAUAUUACGCUGA | -2.07 ± 0.24 | -1.95 ± 0.3
47 | CAGUAGCAAUAUUACGCUGC |  | -1.92 ± 0.43
48 | CAGUAGCAAUAUUACGGAAA | -3.56 ± 0.47 | -3.19 ± 0.4
49 | CAGUAGCAAUAUUACGGAAC |  | -2.72 ± 0.43
50 | CAGUAGCAAUAUUACGGACA | -2.94 ± 0.17 | -2.23 ± 0.17

Row | Sequence | self-splicing fitness (ln) (30 °C) | self-splicing fitness (ln) (37 °C)
51 | CAGUAGCAAUAUUACGGACG | -0.216 ± 0.11 | 0.702 ± 0.16
52 | CAGUAGCAAUAUUACGGGAU | -4.35 ± 0.31 | -3.18 ± 0.16
53 | CAGUAGCAAUAUUACGGUGG | -0.646 ± 0.06 | -0.131 ± 0.09
54 | CAGUAGCAAUAUUACGUAAU | -4 ± 0.28 | -2.63 ± 0.44
55 | CAGUAGCAAUAUUACGUACG | 0.212 ± 0.13 | 0.0818 ± 0.15
56 | CAGUAGCAAUAUUACGUGGG | -3.85 ± 0.29 | -1.92 ± 0.21
57 | CAGUAGCAAUAUUACGUUUC | -3.64 ± 0.3 | -2.69 ± 0.3
58 | CAUAAGCAAUAUUACGAACA | -3.64 ± 0.4 | -2.06 ± 0.38
59 | CAUAAGCAAUAUUACGAAGA | -2.84 ± 0.37 | -3.15 ± 0.33
60 | CAUAAGCAAUAUUACGCAAU | -3.2 ± 0.25 | -2.59 ± 0.36
61 | CAUAAGCAAUAUUACGCGCC | -3.87 ± 0.4 | -1.47 ± 0.34
62 | CAUAAGCAAUAUUACGCGGU | -3.72 ± 0.24 | -2.34 ± 0.17
63 | CAUAAGCAAUAUUACGCUCU | -2.58 ± 0.19 | -1.3 ± 0.12
64 | CAUAAGCAAUAUUACGCUGC | -3.86 ± 0.21 | -3.23 ± 0.3
65 | CAUAAGCAAUAUUACGCUUC | -2.57 ± 0.27 | -2.19 ± 0.3
66 | CAUAAGCAAUAUUACGGACU | -3.64 ± 0.18 | -2.97 ± 0.23
67 | CAUAAGCAAUAUUACGGAGC | -3.94 ± 0.29 | -3.35 ± 0.22
68 | CAUAAGCAAUAUUACGGAGU | -3.14 ± 0.15 | -2.35 ± 0.2
69 | CAUAAGCAAUAUUACGGAUG | -3.14 ± 0.14 | -2.17 ± 0.15
70 | CAUAAGCAAUAUUACGGCGC | -2.68 ± 0.42 | -3.17 ± 0.35
71 | CAUAAGCAAUAUUACGGCUG | -0.37 ± 0.082 | 0.0915 ± 0.12
72 | CAUAAGCAAUAUUACGGGGA | -2.02 ± 0.17 | -2.83 ± 0.23
73 | CAUAAGCAAUAUUACGGGGG | -2.49 ± 0.094 | -2.42 ± 0.14
74 | CAUAAGCAAUAUUACGGUCG | 0.0543 ± 0.064 | -0.0112 ± 0.079
75 | CAUAAGCAAUAUUACGUAAG | 0.111 ± 0.062 | 0.3 ± 0.079

Row | Sequence | self-splicing fitness (ln) (30 °C) | self-splicing fitness (ln) (37 °C)
76 | CAUAAGCAAUAUUACGUACC | -1.97 ± 0.3 | 
77 | CAUAAGCAAUAUUACGUACG | -0.507 ± 0.053 | 0.239 ± 0.074
78 | CAUAAGCAAUAUUACGUCAG | -1.26 ± 0.13 | 0.389 ± 0.15
79 | CAUAAGCAAUAUUACGUGAC | -2.48 ± 0.15 | -2.03 ± 0.22
80 | CAUAAGCAAUAUUACGUGGC |  | -1.86 ± 0.25
81 | CAUAAGCAAUAUUACGUUAA | -2.6 ± 0.23 | -2.92 ± 0.4
82 | CAUCAGCAAUAUUACGAAAU | -4.26 ± 0.2 | -2.66 ± 0.16
83 | CAUCAGCAAUAUUACGAAUG | -3.18 ± 0.16 | -2.05 ± 0.14
84 | CAUCAGCAAUAUUACGACAA | -2.31 ± 0.24 | -1.41 ± 0.21
85 | CAUCAGCAAUAUUACGACGU | -0.965 ± 0.064 | -0.79 ± 0.09
86 | CAUCAGCAAUAUUACGAGAA | -2.12 ± 0.21 | -2.09 ± 0.18
87 | CAUCAGCAAUAUUACGAUCG | -0.307 ± 0.12 | -0.125 ± 0.15
88 | CAUCAGCAAUAUUACGAUUU | -0.551 ± 0.071 | 0.205 ± 0.1
89 | CAUCAGCAAUAUUACGCAUC | -1.34 ± 0.13 | -1.02 ± 0.15
90 | CAUCAGCAAUAUUACGCCGC | -3.14 ± 0.36 | 
91 | CAUCAGCAAUAUUACGCGAG | 0.128 ± 0.083 | -0.05 ± 0.1
92 | CAUCAGCAAUAUUACGCGCC | -2.74 ± 0.27 | -1.05 ± 0.27
93 | CAUCAGCAAUAUUACGCGGG | -2.04 ± 0.13 | -0.735 ± 0.12
94 | CAUCAGCAAUAUUACGCGUU | -2.17 ± 0.1 | -1.54 ± 0.13
95 | CAUCAGCAAUAUUACGGAAA | -2.66 ± 0.23 | -0.167 ± 0.14
96 | CAUCAGCAAUAUUACGGAAC | -2.6 ± 0.19 | -2.54 ± 0.36
97 | CAUCAGCAAUAUUACGGCAU | -2.85 ± 0.15 | -1.66 ± 0.17
98 | CAUCAGCAAUAUUACGGCCG | -0.131 ± 0.093 | -0.0546 ± 0.14
